Measured values taken from paper PMC9189065.

Assays:
[1] = target: mouse METAP1(1-59) (mouse) (UniProt Q8BP48); experiment: other fluorescence titration
[2] = target: mouse METAP1(1-79) (mouse) (UniProt Q8BP48); experiment: other fluorescence titration

In the case of “mouse ZNG1 N-terminal peptide, synthetic”, the Kd [1] is reported as 0.1 µM, the stoichiometry N [1] is reported as 1 and the Kd [2] is reported as 0.1 µM. It also gave a stoichiometry N [2] of 1.
